Measured values from article PMC12302718, “Molecular basis for Gβγ-SNARE-mediated inhibition of synaptic vesicle fusion” (The Journal of Biological Chemistry, 2025).
Where no end group is shown, it is not given here.

B1: Nanobody-5 (Nb5) (VHH)
VHH: QVQLVESGGGLVQAGGSLRLSCAASGSIFSINAMGWYRQAPGKQRELVAAITRGGRTNYADSVKGRFTLSRDNAKNTVYLQMNSLKPEDTAVYYCNVGRSRGYWGQGTQVTVSS
notes: as the chain of m17; source: expressed and purified as described previously (53); plasmid a gift of the Palczewski laboratory
B2: biotinylated Nb5 (VHH)
VHH: B1 VHH
notes: also called Nanobody-5; source: expressed and purified as described previously (53); plasmid a gift of the Palczewski laboratory
B3: Gγ10, res. 4–18 peptide (peptide)
peptide: GASASALQRLVEQLK
modifications: on the array: C-terminus coupled to the membrane
notes: Gγ10, human, residues 4-18; source: synthetic peptide: SPOT array on membrane (ResPep SL)
B4: Gγ2, res. 1–15 peptide (peptide)
peptide: MASNNTASIAQARKL
modifications: on the array: C-terminus coupled to the membrane
notes: Gγ2, human, residues 1-15; also called Gγ2 N-terminal peptide; Gγ2 amino-terminal peptide; source: synthetic peptide: SPOT array on membrane (ResPep SL)
B5: Gγ3, res. 56–70 peptide (peptide)
peptide: ITPVPTSENPFREKK
modifications: on the array: C-terminus coupled to the membrane
notes: Gγ3, human, printed as residues 56-70; source: synthetic peptide: SPOT array on membrane (ResPep SL)
B6: Gγ2, res. 52–66 peptide (peptide)
peptide: TPVPASENPFREKKF
modifications: on the array: C-terminus coupled to the membrane
notes: Gγ2, human, residues 52-66; also called Gγ2 peptide 18 (by the array's scheme of 15-mers shifted by three); source: synthetic peptide: SPOT array on membrane (ResPep SL)
B7: Gγ12, res. 7–21 peptide (peptide)
peptide: STNNIAQARRTVQQL
modifications: on the array: C-terminus coupled to the membrane
notes: Gγ12, human, residues 7-21; source: synthetic peptide: SPOT array on membrane (ResPep SL)
B8: Gγ1, res. 1–15 peptide (peptide)
peptide: MPVINIEDLTEKDKL
notes: Gγ1, human, residues 1-15; also called Gγ1 N-terminal peptide; source: peptide stock in DMSO
B9: Gγ3, res. 13–27 peptide (peptide)
peptide: IGQARKMVEQLKIEA
modifications: also: C-terminus coupled to the membrane
notes: Gγ3, human, residues 13-27; source: synthetic peptide: SPOT array on membrane (ResPep SL)
B10: Gγ8, res. 52–66 peptide (peptide)
peptide: PVPAAENPFRDKRLF
modifications: on the array: C-terminus coupled to the membrane
notes: Gγ8, human, residues 52-66; source: synthetic peptide: SPOT array on membrane (ResPep SL)
B11: Gγ5, res. 49–63 peptide (peptide)
peptide: LTGVSSSTNPFRPQK
modifications: on the array: C-terminus coupled to the membrane
notes: Gγ5, human, residues 49-63; source: synthetic peptide: SPOT array on membrane (ResPep SL)
B12: Gγ13, res. 16–30 peptide (peptide)
peptide: LKYQLAFQREMASKT
modifications: on the array: C-terminus coupled to the membrane
notes: Gγ13, human, residues 16-30; source: synthetic peptide: SPOT array on membrane (ResPep SL)

Each binder was assayed against T1, His-tagged soluble Gβ1γ2 (C68S) (UniProt P62873;P59768, C68S) (assay: AlphaScreen or HTRF; competition: Nb5 0.4 nM-1.26 μM; biotinylated SNAP25 with an EC80 concentration of His-tagged Gβ1γ2). Conditions: both partners purified.
T1 construct: G-protein subunit β1 (Gβ1); G-protein subunit γ2 (Gγ2) with C68S (soluble); it is entered on Gβ1; For MST the His tag was labelled with Red-tris-NTA; also called full-length Gβ1γ2; His6-Gβ1γ2; source: Sf9 cells, purified as previously described (69)
An IC50 of 24.6 nM was found for B1 in this work.

What follows are binders tested against T2, His-tagged soluble Gβ1γ2 (C68S) (UniProt P62873 1-340; P59768 1-71, C68S) (assay: AlphaScreen or HTRF; competition: SNAP25 C-terminal peptide (189-206) against biotinylated full-length SNAP25 for His6-Gβ1γ2). Conditions: both partners purified.
T2 construct: G-protein subunit β1 (Gβ1); G-protein subunit γ2 (Gγ2) with C68S (soluble); it is entered on Gβ1; For MST the His tag was labelled with Red-tris-NTA; also called full-length Gβ1γ2; His6-Gβ1γ2; source: Sf9 cells, purified as previously described (69)
An IC50 of 1840 nM was found for KTRIDEANQRATKMLGSG (peptide, UniProt P60880 189-206, looked up, also called C-terminal SNAP25 peptide) [SNAP25 C-terminal peptide (residues 189–206)] in this work.

Each binder was assayed against T1, His-tagged soluble Gβ1γ2 (C68S) (assay: AlphaScreen or HTRF; direct binding: 20 nM biotinylated Nb5 with 0.1 nM-1 μM His-tagged Gβ1γ2; concentration-response curves fitted for EC50). Conditions: both partners purified.
An EC50 of 3.72 nM was found for B2 in this work.

Each binder was assayed against T3, biotinylated SNAP25 (UniProt P60880 1-206, biotin (site not stated)) (assay: AlphaScreen or HTRF; competition: Gγ peptides 1 nM-100 μM; 20 nM biotinylated SNAP25 on streptavidin donor beads, 180 nM His6-Gβ1γ2 on nickel chelate acceptor beads; 20 mM HEPES pH 7.0, 10 mM NaCl, 40 mM KCl, 5% glycerol, 0.01% Triton X-100; 27 °C). Conditions: both partners purified.
T3 construct: SNAP25, wild type; also called full-length SNAP25; synaptosomal-associated protein-25; source: expressed and purified as described (12, 39)
An IC50 of 430 nM was found for B3 in this work. An IC50 of 540 nM was found for B4 in this work. An IC50 of 7010 nM was found for B5 in this work. An IC50 of 12600 nM was found for B6 in this work. An IC50 of 2910 nM was found for B7 in this work. For B8, the IC50 was > 100000 nM. An IC50 of 4040 nM was found for B9 in this work. An IC50 of 640 nM was found for B10 in this work. An IC50 of 1720 nM was found for B11 in this work. An IC50 of 9460 nM was found for B12 in this work.
